Where a chain is given by its changes, count along the chain named.
What was measured:
Assay in all cases: cell-based or functional assay
[1] = target: T1, factor VIIIa A1/A3C1C2 dimer, Glu1984Val (human, UniProt P00451 20-391; P00451 1709-2351)
T1 sequence 1: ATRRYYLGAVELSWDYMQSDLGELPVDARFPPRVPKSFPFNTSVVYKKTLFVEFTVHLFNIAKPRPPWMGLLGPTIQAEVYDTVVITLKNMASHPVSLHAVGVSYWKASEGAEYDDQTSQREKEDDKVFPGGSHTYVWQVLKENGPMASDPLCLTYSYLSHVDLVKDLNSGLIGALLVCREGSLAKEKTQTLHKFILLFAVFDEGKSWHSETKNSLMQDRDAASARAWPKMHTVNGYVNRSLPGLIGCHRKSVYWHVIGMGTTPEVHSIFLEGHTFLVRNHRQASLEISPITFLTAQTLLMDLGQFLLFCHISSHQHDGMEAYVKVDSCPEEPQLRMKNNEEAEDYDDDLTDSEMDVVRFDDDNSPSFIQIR
T1 sequence 2: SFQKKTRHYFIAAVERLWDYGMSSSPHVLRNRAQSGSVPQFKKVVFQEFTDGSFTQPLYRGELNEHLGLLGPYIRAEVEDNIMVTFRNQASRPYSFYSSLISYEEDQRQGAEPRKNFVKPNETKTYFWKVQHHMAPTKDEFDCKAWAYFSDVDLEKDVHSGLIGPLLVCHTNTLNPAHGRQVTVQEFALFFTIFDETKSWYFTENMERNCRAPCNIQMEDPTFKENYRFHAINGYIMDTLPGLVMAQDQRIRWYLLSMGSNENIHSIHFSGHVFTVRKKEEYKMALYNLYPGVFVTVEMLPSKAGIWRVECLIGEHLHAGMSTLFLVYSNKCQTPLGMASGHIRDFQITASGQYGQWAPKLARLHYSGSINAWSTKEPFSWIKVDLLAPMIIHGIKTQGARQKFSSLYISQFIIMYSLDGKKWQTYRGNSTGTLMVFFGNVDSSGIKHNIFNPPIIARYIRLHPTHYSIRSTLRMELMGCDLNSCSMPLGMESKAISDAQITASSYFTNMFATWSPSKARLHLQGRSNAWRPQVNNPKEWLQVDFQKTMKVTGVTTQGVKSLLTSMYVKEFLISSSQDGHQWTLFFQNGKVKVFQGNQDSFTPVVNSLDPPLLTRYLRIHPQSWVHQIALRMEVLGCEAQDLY

[2] = target: T2, factor VIIIa A1/A3C1C2 dimer, S313A (human, UniProt P00451 20-391; P00451 1709-2351)
T2 chain 1: T1 sequence 1 with S313A
T2 chain 2: T1 sequence 2 with V295E

[3] = target: T3, factor VIIIa A1/A3C1C2 dimer, D1795A (human, UniProt P00451 20-391; P00451 1709-2351)
T3 sequence 1: T1 sequence 1
T3 sequence 2: T1 sequence 2 with D106A, V295E

Decay rate relative to wild type, Factor VIIIa (1.5 nM, factor IXa absent) [1]: 0.34 relative to wild type
Decay rate, Factor VIIIa (1.5 nM factor VIIIa, factor IXa absent) [1]: 0.0471 min⁻¹
Factor VIIIa decay rate relative to wild type, FIXa (+) [2]: 1.86 relative to wild type
Factor VIIIa decay rate, FIXa (+) [2]: 0.021 min⁻¹
Factor VIIIa decay rate relative to wild type, FIXa (+) [3]: 2.11 relative to wild type
Factor VIIIa decay rate, FIXa (+) [3]: 0.0238 min⁻¹
B1: factor VIIIa A2 subunit, wild type (other)
chain: SVAKKHPKTWVHYIAAEEEDWDYAPLVLAPDDRSYKSQYLNNGPQRIGRKYKKVRFMAYTDETFKTREAIQHESGILGPLLYGEVGDTLLIIFKNQASRPYNIYPHGITDVRPLYSRRLPKGVKHLKDFPILPGEIFKYKWTVTVEDGPTKSDPRCLTRYYSSFVNMERDLASGLIGPLLICYKESVDQRGNQIMSDKRNVILFSVFDENRSWYLTENIQRFLPNPAGVQLEDPEFQASNIMHSINGYVFDSLQLSVCLHEVAYWYILSIGAQTDFLSVFFSGYTFKHKMVYEDTLTLFPFSGETVFMSMENPGLWILGCHNSDFRNRGMTALLKVSSCDKNTGDYYEDSYEDISAYLLSKNNAIEPR

From patent US20090118184A1 (UNIVERSITY OF ROCHESTER, published 2009)
